Tests used:
Assay type in all cases: biochemical
four mismatch primers = assay: PCR screen of clones with four mismatch primers; conditions: 292 base pair product, 50 cycles of PCR
Protocol: The resultant clones from both CSR and CST were screened and ranked by PCR assay. Briefly, 2 μl of induced cells were added to 20 μl of PCR mix with the relevant 4 mismatch primers. Clones that produced a band were then subjected to further analysis and their activity on single, double and quadruple mismatch primers (single mismatch primers: 5′-CAGGAAACAGCTATGACAAAAATCTAGATAACGAGGGA-3′ (SEQ ID NO: 48) and 5′-GTAAAACGACGGCCAGTACCACCGAACTGCGGGTGACGCCAAGCC 3′ (SEQ ID NO: 49); double mismatch primers: CAGGAAACAGCTATGACTCGACAAAAATCTAGATAACGACC (SEQ ID NO: 50) and GTAAAACGACGGCCAGTTTATTAACCACCGAACTGC (SEQ ID NO: 51); four mismatch primers above.) was investigated. Polymerases that could extend all of these mismatches were found, though many polymerases could do only one of the mismatches and […].
The best first and second round clones were shuffled as described above and subjected to another round of CSR. The same two sets of mismatch primers with four mismatches at their 3′ end were used in the emulsion as two separate sources of selective pressure. This was then dealt with as above and the resultant clones were screened and ranked by PCR assay (as above). Once again, polymerases that could extend all of these mismatches were found. In particular, clones 3B5.

[1] = test system: primers with an abasic site seven bases from their 3′ end; assay: Abasic site bypass in PCR; conditions: 176 bp product, 20 cycles of PCR
Protocol: FIG. 10. A list of polymerases selected to extend four mismatches were assayed for their ability to extend abasic sites in PCR. Primers with an abasic site seven bases from their 3′ end were designed. Such primers will prevent exponential amplification of the target sequence, restricting it to […] amplification, unless the abasic site is bypassed. […] (A) Screen which identified clone A10. (B) A further 4 polymerases that display good abasic site bypass. Lane M: markers, Hae III digest of Φ X174.
A list of polymerases selected to extend four mismatches were assayed for their ability to extend abasic sites in PCR (FIG. 10).

[2] = test system: template containing an abasic site; assay: Translesion replication assay (primer extension), abasic site; conditions: gel-extension assay, 60° C.
Protocol: Template primers 22 (undamaged) or 23 (containing a synthetic abasic site) were synthesized by Lofstrand Laboratories (Gaithersburg, Md.). Template primer 24 (containing a single cis-syn thymine dimer), was synthesized as described (34). Primer 25 was ^32P-labeled and annealed to one of the three templates 22, 23, 24 (at a primer template ratio of molar 1:1.5) and extended in 40 mM Tris.HCl at pH 8.0, 5 mM MgCl2, 100 μM of each dNTP, 10 mM DTT, 250 μg/ml BSA, 2.5% glycerol, 10 nM primer-template DNA and 0.1 Unit of polymerase at 60° C. for various times.
Primer extension assays were essentially as described in (Ghadessy et al., 2004). Briefly, undamaged oligonucleotides and a 51mer containing a synthetic abasic site were synthesized by Lofstrand Laboratories (Gaithersburg, Md.) using standard techniques and were gel purified prior to use. A 20mer primer (LES—20 P) with the sequence 5′-[…]-3′ (SEQ ID NO: 99) was 5′-labeled with [^32P]ATP (5000 Ci/mmole; 1 Ci=37 GBq) (Pharmacia) using T4 polynucleotide kinase (Invitrogen, Carlsbad Calif.). Radiolabeled primer-template DNAs were prepared by annealing the 5′[^32P] labeled 20mer primer to one of the two following 51mer templates (at a primer template ratio of molar 1:1.5). 1) undamaged DNA (UNDT51T); 5′-AGCTACCATGCCTGCACGAATTCGGCATCCGTCGCGACCACGGTCGCAGCG-3′ (SEQ ID NO: 100); 2) an oligo (LABA51T) containing a synthetic abasic site (indicated as an X in bold font); 5′-AGCTACCATGCCTGCACGACA XCG GCATCCGTCGCGACCACGGTCGCAGCG-3′ (SEQ ID NO: 101). Standard replication reactions of 10 contained 40 mM Tris.HCl at pH 8.0, 5 mM MgCl2, 100 μM of each ultrapure dNTP (Amersham Pharmacia Biotech, NJ), 10 mM DTT, 250 μg/ml BSA, 2.5% glycerol, 10 nM 5′[32P] primer-template DNA and 0.1 Unit of polymerase. After incubation at 60° C. for various times reactions were terminated by the addition of 10 μl of 95% formamide/10 mM EDTA and the samples heated to 100° C. for 5 min. Reaction mixtures (5 μl) were subjected to 20% polyacrylamide/7 M Urea gel electrophoresis and replication products visualized by PhosphorImager analysis.

B1: 3B5: third round clone, four mismatch extension; SEQ ID NO: 88 (protein)
chain: MAMLPLFEPKGRVLLVDGHHLAYRTSFALKGPTTSRGEPVQVVYGFAKSLLKALKEDGYKAVFVVFDAKAPPFRHKAYEAYRAGRAPTPEDFPRQLALVKELVDLLGFTRLEVPGYEADDVLATLAKKAEKEGYEVRILTADRGLYQLVSDRVAVLHPEGHLITPEWLWEKYGLRPEQWVDFRALVGDPSDNLPGVKGIGEKTALKLLKEWGSLENLLKNLDRVKPENVREKIKAHLEDLRLSLELSRVRTDLPLEVDLAQGREPDRERLRAFLERLEFGSLLHEFGLLESPKALEEAPWPPPEGAFVGFVLSRKAPMWADLLALAAARGGRVYRAPEPYKALRDLKEARGLLAKDLSVLALREGLGLPPGDDPMLLAYLLDPSNTTPEGVARRYGGEWTEEAGERAALSERLFANLWGRLEGEERLLWLYREVDRPLSAVLAHMEATGVRLDVACLQALSLELAEEIRRLEEEVFRLAGHTFNLNSRDQLERVLFDELGLPAIGKTEKTGKRSTSAAILEALREAHPIVEKILQYRELTKLKSTYIDPLPDLIHPRTGRLHTRFNQTATATGRLSSSDPNLQNIPVRTPLGQRIRRAFIAEEGWLLVVLDYSQIELRVLAHLSGDENLIRVFQEGRDIHTETASWMFGVPREAVDPLMRRAAKTINFGVLYGMSAHRLSQELAIPYEEAQAFIERYFQSFPKVRAWIEKALEEGRRRGYVETLFGRRRYVPDLNARVKSVREAAERMAFNMPVQGTAADLMKLAMVKLFPRLREMGARMLLQVHDELLLEAPQARAEEVAALAKEAMEKAYPLAVPLEVKVGIGEDWLSAKE
modifications: Mutant Taq polymerase
Four mismatch primers
  extension of primers containing four mismatches in PCR: able to extend primers containing four mismatches

B2: 3B8: third round clone; SEQ ID NO: 92 (protein)
chain: MAMLPLFEPKGRVLLVDGHHLAYRTFFALKGLTTSRGEPVQVVYGFAKSLLKALKEDGYKAVFVVFDAKAPSLRHEAYEAYKAGRAPTPEDFLRQLALIKELVDLLGFTRLEVQGYEADDVLATLAKKAEKEGYEVRILTADRDLYQLVSDRVAVLHPEGHLITPEWLWEKYGLRPEQWVDFRALVGDPSDNLPGVKGIGEKTALKLLKEWGSLENLLKNLDRLKPAIREKILAHMDDLKLSWDLAKVRTDLPLEVDFAKRREPDRERLRAFLERLELGSLLHEFGLLESPKTLEEASWPPPEGAFVGFVLSRKEPMWADLLALAAARGGRVHRAPEPYKALRDLKEARGLLAKDLSVLALREGLGLPPGDDPMLLAYLLDPSNTTPEGVARRYGGEWTKEAGERAALSERLFANLWGRLEGEERLLWLYREVDRPLSAVLAHMEATGVRLDVAYLRALSLEVAEEIARLEAEVFRLAGHPFNLNSRDQLERVLFDELGLPAIGKTEKTGKRSTSAAVLEALREAHPIVEKILQYRELTKLKSTYIDPLPDLIHPRTGRLHTRFNQTATATGRLSSSDPNLQNIPVRTPLGQRIRRAFVAEEGWLLVVLDYSQIELRVLAHLSGDENLTRVFLEGRDIHTETASWMFGVPREAVDPLMRRAAKTINFGVLYGMSAHRLSQELAIPYEEAQAFIERYFQSFPKVRAWIEKTLEEGRKRGYVETLFGRRRYVPDLNARVKSVREAAERMAFNMPVQGTAADLMKLAMVKLFPRLREMGARMLLQVHDELLLEAPQARAEEVAALAKEAMEKAYPLAVPLEVKEGIGEDWLSAKE
modifications: Mutant Taq polymerase
Four mismatch primers
  extension of primers containing four mismatches in PCR: able to extend primers containing four mismatches
Four mismatch primers; listed as B8
  extension of primers containing four mismatches in PCR: cannot
[1]
  amplification product in PCR with abasic site primers: produced an amplification product

B3: 3C12: third round clone, four mismatch extension; SEQ ID NO: 96 (protein)
chain: MAMLPLFEPKGRVLLVDGHHLAYRTFFALKGPTTSRGEPVQVVYGFAKSLLKALKEDGYKAVFVVFDAKAPSFRHKAYEAYRAGRAPTPEDFPRQLALIKELVDLLGFTRLEVPGYEADDVLATLAKKAEKEGYEVRILTADRGLYQLVSDRVAVLHPEGHLITPEWLWEKYGLRPEQWVDFRALVGDPSDNLPGVKGIGEKTALKLLKEWGSLENLLKNLDRVKPENVREKIKAHLEDLRLSLELSRVRTDLPLEVDLAQGREPDREGLRAFLERLEFGSLLHEFGLLESPKALEEAPWPPPEGAFVGFVLSRKEPMWADLLALAAARGGRVHRAPEPYKALRDLKEARGLLAKDLSVLALREGLGLPPGDDPMLLAYLLDPSNTAPEGVARRYGGEWTEEAGERAALSERLFANLWGRLEGEERLLWLYREVDRPLSAVLAHMEATGVRLDVACLQALSLELAEEIRRLEEEVFRLAGHPFNLNSRDQLERVLFDELGLPAIGKTEKTGKRSTSAAILEALREAHPIVEKILQYRELTKLKSTYIDPLPDLIHPRTGRLHTRFNQTATATGRLSSSGPNLQNIPVRTPLGQRIRRAFVAEEGWLLVVLDYSQIELRVLAHLSGDENLTRVFLEGRDIHTETASWMFGVPREAVDPLMRRAAKTINFGVLYGMSAHRLSQELAIPYEEAQAFIERYFQSFPKVRAWIEKTLEEGRKRGYVETLFGRRRYVPDLNARVKSVREAAERMAFNMPVQGTAADLMKLAMVKLFPRLREMGARMLLQVHDELLLEAPQARAEEVAALAKEAMEKAYPLAVPLEVKVGIGEDWLSAKE
modifications: Mutant Taq polymerase
[2]
  abasic site bypass in primer extension: improved abasic site activity
Four mismatch primers
  extension of primers containing four mismatches in PCR: able to extend primers containing four mismatches
Four mismatch primers; listed as C12
  extension of primers containing four mismatches in PCR: can also extend four mismatched primers in PCR
[1]
  amplification product in PCR with abasic site primers: produced an amplification product

B4: 3B6: third round clone, abasic site bypass; SEQ ID NO: 90 (protein)
chain: MAMLPLFEPKGRVLLVDGHHLAYRAFFALKGLTTSRGEPVQAVYGFAKSLLKALKEDGYKAVFVVFDAKAPSFRHEAYEAYKAGRAPTPEDFPRQLALIKELVDLLGFTRLEVQGYEADDVLATLAKKAEKEGYEVRILTADRDLYQLVSDRVAVLHPEGHLITPEWLWEKYGLRPEQWVDFRALVGDPSNNLPGVKGIGEKTALKLLKEWGSLENLLKNLDRVKPENVREKIKAHLEDLRLSLELSRVRTDLPLEVDLAQGRELDRERLRAFLERLEFGGLLHEFGLLESPKALEEAPWPPPEGAFVGFVLSRKEPMWADLLALAAARGGRVHRAPEPYKALRDLKEARGLLAKDLSVLALREGLGLPPGDDPMLLAYLLDPSNTAPEGVARRYGGEWTEEAGERAALSERLFANLWGRLEGEERLLWLYREVDRPLSAVLAHMEATGVRLDVAYLRALSLEVAEEIARLEAEVFRLAGHPFNLNSRDQLERVLFDELGLPAIGKTEKTGKRSTSAAVLEALREAHPIVEKILQYRELTKLKSTYIDPLPNLIHPRTGRLHTRFNQTATATGRLSSSDPNLQNIPVRTPLGQRIRRAFIAEEGWLLVVLDYSQIELRVLAHLSGDENLIRVFQEGRDIHTETASWMFGVPREAVDPLMRRAAKTINFGVLYGMSAHRLSQELAIPYEEAQAFIERYFQSFPKVRAWIEKTLEEGRKRGYVETLFGRRRYVPDLNARVKGVREAAERMAFNMPVQGTAADLMKLAMVKLFPRLREMGARMLLQVHDELLLEAPQARAGEVAALAKEAMEKAYPLAVPLEVKVGIGEDWLSAKE
modifications: Mutant Taq polymerase
Four mismatch primers
  extension of primers containing four mismatches in PCR: cannot
[1]
  amplification product in PCR with abasic site primers: produced an amplification product

Source: US9096835B2, “DNA polymerase” (Medical Research Council, priority 2003, dated 2015)
